In paper doi:10.1101/391656 (bioRxiv, 2018) one finds Kd data, which are given here for one molecule.

This assay concerns the target V1ΔC (S. cerevisiae, UniProt P17255 2-283; P17255 738-1071; P16140 1-517; P32610 1-256; P22203 1-233; P39111 …). Briefly: BLI.

Broadly, the Kd is the concentration at which binding is half-saturated.

B1: MBP-C (natural protein, S. cerevisiae, UniProt P31412 1-392, looked up)
chain: MATALYTANDFILISLPQNAQPVTAPGSKTDSWFNETLIGGRAFVSDFKIPEFKIGSLDTLIVESEELSKVDNQIGASIGKIIEILQGLNETSTNAYRTLPINNMPVPEYLENFQWQTRKFKLDKSIKDLITLISNESSQLDADVRATYANYNSAKTNLAAAERKKTGDLSVRSLHDIVKPEDFVLNSEHLTTVLVAVPKSLKSDFEKSYETLSKNVVPASASVIAEDAEYVLFNVHLFKKNVQEFTTAAREKKFIPREFNYSEELIDQLKKEHDSAASLEQSLRVQLVRLAKTAYVDVFINWFHIKALRVYVESVLRYGLPPHFNIKIIAVPPKNLSKCKSELIDAFGFLGGNAFMKDKKGKINKQDTSLHQYASLVDTEYEPFVMYIINL
Consider B1, for which the Kd was approximately 0.7 nM.
